From publication PMC12098889, “Structural insight into PIF6-mediated red light signal transduction of plant phytochrome B” (Cell Discovery, 2025)
Changes are numbered by the printed parent chain. Numbers in names are those of the source.

T1: phyBN (residues 1‒908 of phyB) (Arabidopsis, UniProt P14713 1-908, PΦB chromophore covalently bound)
T1 construct: Arabidopsis phytochrome B, residues 1-908 (HKRD truncated); also called phyBN-Pfr (red light-irradiated); source: E. coli BL21(DE3), co-expressed with HO1 and HY2, purified; not shown: 3× Flag, N-terminal, kept
T1 sequence (looked up): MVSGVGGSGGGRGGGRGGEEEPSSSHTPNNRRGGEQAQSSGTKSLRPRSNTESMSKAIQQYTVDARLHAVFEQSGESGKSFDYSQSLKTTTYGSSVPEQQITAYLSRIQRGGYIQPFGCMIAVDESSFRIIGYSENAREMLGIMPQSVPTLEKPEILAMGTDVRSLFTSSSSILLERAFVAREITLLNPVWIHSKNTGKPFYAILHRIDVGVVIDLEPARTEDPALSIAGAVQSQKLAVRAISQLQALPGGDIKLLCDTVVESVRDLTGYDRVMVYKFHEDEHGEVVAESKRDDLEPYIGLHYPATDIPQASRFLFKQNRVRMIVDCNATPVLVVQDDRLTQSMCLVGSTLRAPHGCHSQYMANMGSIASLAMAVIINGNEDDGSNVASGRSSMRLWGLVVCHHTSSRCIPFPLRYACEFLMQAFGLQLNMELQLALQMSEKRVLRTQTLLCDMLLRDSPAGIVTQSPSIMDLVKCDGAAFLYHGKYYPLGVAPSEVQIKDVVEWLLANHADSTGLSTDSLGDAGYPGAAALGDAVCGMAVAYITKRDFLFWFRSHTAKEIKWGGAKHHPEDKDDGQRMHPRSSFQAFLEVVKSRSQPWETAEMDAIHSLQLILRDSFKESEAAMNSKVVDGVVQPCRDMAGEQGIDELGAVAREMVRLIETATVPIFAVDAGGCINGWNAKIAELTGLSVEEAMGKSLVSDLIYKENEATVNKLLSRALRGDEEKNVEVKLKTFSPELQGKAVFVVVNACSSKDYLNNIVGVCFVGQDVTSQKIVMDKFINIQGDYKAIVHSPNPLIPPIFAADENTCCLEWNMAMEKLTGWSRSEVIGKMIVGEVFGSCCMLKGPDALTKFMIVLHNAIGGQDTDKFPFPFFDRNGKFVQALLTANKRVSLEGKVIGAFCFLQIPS

B1: phytochrome B (phyB), full length (1‒1172) (receptor, Arabidopsis, UniProt P14713 1-1172, looked up)
chain: MVSGVGGSGGGRGGGRGGEEEPSSSHTPNNRRGGEQAQSSGTKSLRPRSNTESMSKAIQQYTVDARLHAVFEQSGESGKSFDYSQSLKTTTYGSSVPEQQITAYLSRIQRGGYIQPFGCMIAVDESSFRIIGYSENAREMLGIMPQSVPTLEKPEILAMGTDVRSLFTSSSSILLERAFVAREITLLNPVWIHSKNTGKPFYAILHRIDVGVVIDLEPARTEDPALSIAGAVQSQKLAVRAISQLQALPGGDIKLLCDTVVESVRDLTGYDRVMVYKFHEDEHGEVVAESKRDDLEPYIGLHYPATDIPQASRFLFKQNRVRMIVDCNATPVLVVQDDRLTQSMCLVGSTLRAPHGCHSQYMANMGSIASLAMAVIINGNEDDGSNVASGRSSMRLWGLVVCHHTSSRCIPFPLRYACEFLMQAFGLQLNMELQLALQMSEKRVLRTQTLLCDMLLRDSPAGIVTQSPSIMDLVKCDGAAFLYHGKYYPLGVAPSEVQIKDVVEWLLANHADSTGLSTDSLGDAGYPGAAALGDAVCGMAVAYITKRDFLFWFRSHTAKEIKWGGAKHHPEDKDDGQRMHPRSSFQAFLEVVKSRSQPWETAEMDAIHSLQLILRDSFKESEAAMNSKVVDGVVQPCRDMAGEQGIDELGAVAREMVRLIETATVPIFAVDAGGCINGWNAKIAELTGLSVEEAMGKSLVSDLIYKENEATVNKLLSRALRGDEEKNVEVKLKTFSPELQGKAVFVVVNACSSKDYLNNIVGVCFVGQDVTSQKIVMDKFINIQGDYKAIVHSPNPLIPPIFAADENTCCLEWNMAMEKLTGWSRSEVIGKMIVGEVFGSCCMLKGPDALTKFMIVLHNAIGGQDTDKFPFPFFDRNGKFVQALLTANKRVSLEGKVIGAFCFLQIPSPELQQALAVQRRQDTECFTKAKELAYICQVIKNPLSGMRFANSLLEATDLNEDQKQLLETSVSCEKQISRIVGDMDLESIEDGSFVLKREEFFLGSVINAIVSQAMFLLRDRGLQLIRDIPEEIKSIEVFGDQIRIQQLLAEFLLSIIRYAPSQEWVEIHLSQLSKQMADGFAAIRTEFRMACPGEGLPPELVRDMFHSSRWTSPEGLGLSVCRKILKLMNGEVQYIRESERSYFLIILELPVPRKRPLSTASGSGDMMLMMPY
modifications: PΦB chromophore covalently linked to C357
notes: Arabidopsis phytochrome B, residues 1-1172, At2g18790; The same protein is Pr in the dark and Pfr after red light; The purification uses Ni-NTA, but no His tag on phyB is described; also called wild-type phyB; phyB-Pr (dark); source: E. coli BL21(DE3), co-expressed with HO1 and HY2, purified (Ni-NTA, anti-FLAG resin, Source Q); not shown: 3× Flag ([residues removed]), N-terminal, kept
B2: PIF6αΔC (1‒247) (domain or fragment, Arabidopsis, UniProt Q8L5W7 1-247, looked up)
chain: MMFLPTDYCCRLSDQEYMELVFENGQILAKGQRSNVSLHNQRTKSIMDLYEAEYNEDFMKSIIHGGGGAITNLGDTQVVPQSHVAAAHETNMLESNKHVDDSETLKASSSKRMMVDYHNRKKIKFIPPDEQSVVADRSFKLGFDTSSVGFTEDSEGSMYLSSSLDDESDDARPQVPARTRKALVKRKRNAEAYNSPERNQRNDINKKMRTLQNLLPNSHKDDNESMLDEAINYMTNLQLQVQMMTMG
notes: Arabidopsis PIF6α, residues 1-247; also called PIF6ΔC; C-terminus-truncated PIF6α; source: E. coli BL21(DE3), purified (Ni-NTA, Strep-Tactin, Source Q); not shown: StrepII, C-terminal, kept
B3: phyB^Y276H, full length (receptor, Arabidopsis, UniProt P14713 1-1172, looked up)
chain: B1 chain with Y276H
modifications: PΦB chromophore covalently bound
notes: Arabidopsis phytochrome B, residues 1-1172, At2g18790, with Y276H; also called constitutively active mutant phyB^Y276H; source: E. coli BL21(DE3), co-expressed with HO1 and HY2, purified (Ni-NTA, anti-FLAG resin, Source Q); not shown: 3× Flag ([residues removed]), N-terminal, kept
B4: PIF6N (1‒64) (domain or fragment, Arabidopsis, UniProt Q8L5W7 1-64, looked up)
chain: MMFLPTDYCCRLSDQEYMELVFENGQILAKGQRSNVSLHNQRTKSIMDLYEAEYNEDFMKSIIH
notes: Arabidopsis PIF6, residues 1-64 (methods of the pull-down); the legends call PIF6N residues 1-60 and the results R11-S60; Probably in the modified pET15b vector (N-terminal His6, C-terminal StrepII) like the other PIFNs; also called N-terminus of PIF6β; source: E. coli BL21(DE3), purified

Columns and labels:
[1] = target: the molecule itself; test: cryo-EM structure; phyB and PIF6β mixed ~1:1.5, on ice under red light (665 nm, 800 μmol m^-2 s^-1), SEC in 25 mM HEPES pH 7.8, 250 mM KCl, 10 mM DTT, 1 mM EDTA; irradiated with red light 20 min before freezing
phyB^Y276H, full length = target: B3; test: pull-down; StrepII-tagged PIF6 forms or PIFNs held on Strep-Tactin Sepharose, 3× Flag-phyB or phyB^Y276H in the mixture; in the dark, 4 °C, 2 h; buffer E (100 mM Tris-HCl pH 8.0, 150 mM NaCl, 1 mM EDTA); SDS-PAGE with Coomassie and zinc-induced fluorescence; conditions: both partners purified
[2] = target: B1; test: pull-down; StrepII-tagged PIF6 forms or PIFNs held on Strep-Tactin Sepharose, 3× Flag-phyB in the mixture; red light (665 nm, 800 μmol m^-2 s^-1), 4 °C, 2 h; buffer E (100 mM Tris-HCl pH 8.0, 150 mM NaCl, 1 mM EDTA); eluted with D-desthiobiotin; SDS-PAGE with Coomassie and zinc-induced fluorescence; conditions: both partners purified
[3] = target: PIF6β (1‒182) (Arabidopsis); test: cryo-EM structure; phyB^Y276H or phyBN^Y276H mixed with PIF6β ~1:1.5; full-length complex prepared in the dark; SEC on Superose 6 Increase before freezing
[4] = target: the molecule itself; test: as above
[5] = target: B1; test: SEC; Superose 6 Increase 10/300 GL; 25 mM Tris-HCl pH 8.0, 150 mM NaCl, 5 mM DTT; red light-irradiated phyB; peak fractions on SDS-PAGE; conditions: both partners purified
[6] = target: T1, phyBN (residues 1‒908 of phyB); test: pull-down; StrepII-tagged PIF6N (1-64) and its mutants used to pull down Flag-tagged phyBN (Pfr) and its site-directed mutants; SDS-PAGE with Coomassie and zinc-induced fluorescence; conditions: both partners purified

Binder: B1
binding result [1]: binds

Binder: B2
binding result (phyB^Y276H, full length): binds
binding result [2]: binds

Binder: B3
stoichiometry N (phyB per PIF6β) [3]: 2
binding result [4]: binds

Binder: B4
binding result [5]: binds
binding result [6]: binds
